Results reported in patent US20220275075A1 (PARACRINE THERAPEUTICS, published 2022).
Numbering of substitutions follows the chain as printed.

T1: overlapping PDGF-C peptide EELKRTDTIFC (human)
T1 construct: Synthesised with a C-terminal cysteine for thiol immobilisation
T1 peptide: EELKRTDTIFC

T2: PDGF-C peptide epitope SVSIREELKC (human)
T2 construct: Synthesised with a C-terminal cysteine for thiol immobilisation on the sensor chip
T2 peptide: SVSIREELKC

T3: RTDTIFWPGC
T3 peptide: RTDTIFWPGC

T4: corresponding PDGF-D peptide SVNIREELKC (human)
T4 construct: Synthesised with a C-terminal cysteine; also called alternate peptide
T4 peptide: SVNIREELKC

B1: Peptide 3 (SVSIREELKRTDTIFWPGC) (peptide)
peptide: SVSIREELKRTDTIFWPGC
notes: Synthetic peptide; also called PDGFC peptide 3
B2: monoclonal antibody 12F5 (antibody, mouse IgG2a, V domains shown)
VH: EVKLEESGGGLVQPGGSRELSCEGSGFTFSGFWMSWVRQTPGKTLEWIGDINSDGSAIIYAPSIKDRFTIFRDNDKSTLYLQMNNVRSEDTATYFCMRWGYYGSNYFDYWGQGTTLTVSS
VL: DVVMTQTPLSLPVSLGDQASISCRSSQSIVHSNGNTYLHWYLQKPGQSPKLLIYRVSNRFSGVPDRFSGSGSGTDFTLKISRVEAEDMGVYYCFQGTHVPFTFGSGTKLEIKR
notes: Murine IgG2a, kappa light chain; also called anti-PDGF-CC mAb 12F5
B3: humanized anti-PDGF-CC antibody 6B3 (hu6B3), heavy chain R30 (antibody, V domains shown)
VH: QVQLVQSGAEVKKPGASVKVSCKASGYTFRSYGITWVRQATGQGLEWMGEIYPRSGKTGYAQKFQGRVTMTADTSTSTVYMELRSLRSEDSAVYFCAREGYGYDGGYFDYWGQGTLVTVSS
VL: DIVMTQSPSSLAMSVGERATINCKSSQSLLNSRNQKNYLAWYQQKPGQPPKLLIYFASTRESGVPDRFSGSGSGTDFTLTISSVQAEDVAVYYCQQHYSTPLTFGGGTKVELKR
notes: Human IgG1 kappa as the final form; also called hu6B3 R; hu6B3 R30
B4: monoclonal antibody 6B3 (antibody, mouse IgG2a, V domains shown)
VH: QVQLQQSGVEVARPGASVKLSCKASGYTFRSYGITWVRQRTGQGLEWIGEIYPRSGKTYYNEKFKGKATLTADTSSSTVYMELRSLTSEDSAVYFCAREGYGYDGGYFDYWGQGTTLTVSS
VL: DIVMTQSPSSLAMSVGQKVTMSCKSSQSLLNSRNQKNYLAWYQQKPGQSPKLLVYFASTRESGVPDRFTGSGSGTDFTLTISSVQAEDLAVYYCQQHYSTPLTFGAGTKLELKR
notes: The variable domains are identical to those of 19C7; also called mu6B3; murine 6B3
B5: monoclonal antibody 19C7 (antibody, mouse IgG2a, V domains shown)
VH: B4 VH
VL: B4 VL
notes: Murine IgG2a, kappa light chain
B6: monoclonal antibody 11F5 (antibody, mouse IgG2a, V domains shown)
VH: QVQLQQSGAELARPGASVKLSCKASGYIFISYGISWVKQRTGQGLEWIGEIYPRSGKTYYNEKFKDKAALTADKSSSIAYMELRSLTSEDSAVYFCAREGYGYDGGYFDYWGQGTILTVSS
VL: B4 VL with T20A, M21V, R33S, E61D
notes: as for B5
B7: chimeric anti-PDGF-CC antibody 6B3 (ch6B3) (antibody, V domains shown)
VH: B4 VH with R30G
VL: B4 VL
notes: also called chimeric 6B3; mouse-human chimeric antibody 6B3

How the values were obtained:
monoclonal antibody 6B3 = target: B4; experiment: Biacore competition: 6B3 (333 nM) with soluble peptide injected over immobilised PDGF-CC core protein, maximum response plotted
Method: Biosensor analyses were performed on a BlAcore 2000 biosensor using a carboxymethyldextran-coated sensor chip (Xantec CMD). The chip was derivatised on channel 2 with the PDGF-CC core antigen (60 μg/mL) using standard amine coupling chemistry (0.05M NHS/0.2M EDC). Channel 1 was derivatised with ethanolamine and used as a blank control channel for correction of refractive index effects.
After the injection phase, the dissociation was monitored by flowing HBS buffer over the chip surface for 360s. Bound antibody was eluted and the chip surface regenerated between samples by injection of 30 μl of 10 mM Glycine pH 2.0

[1] = target: T5, recombinant human PDGF-CC active core domain protein with terminal histidine tag (human, UniProt Q9NRA1 231-345); experiment: SPR, BIAcore 2000, His-tagged PDGF-CC on Ni-NTA chip, antibody as analyte, 1:1 Langmuir fit (apparent)
T5 construct: Made in baculovirus-infected Sf9 cells; The position of the tag in the chain is not known; also called RhPC; RhPCc; not shown: terminal histidine tag
Method: Biosensor analyses were performed on a BIAcore 2000 biosensor using an NTA sensor chip. Briefly, a NTA sensor chip was loaded with Ni 2+ and used to immobilize histidine tagged PDGF-CC ligand. The PDGF-CC antibodies were passed over the chip at varying concentrations in order to determine apparent affinity (KD). Chips were regenerated with EGTA. The chip was re-equilibrated by washing with HBS (containing no EDTA) before further analyses. Using BIAevaluation software, a 1:1 Langmuir binding analysis model was used to estimate the apparent association (ka) and disassociation (kd) rate constants for each set of antibody experiments.

[2] = target: T6, recombinant human PDGF-BB (human, UniProt P01127 82-190); experiment: ELISA, PDGF ligands coated at 1 µg/ml, purified mAb at 1.5 µg/ml
T6 construct: Bought; The construct is not described; also called PB
Method: (§1) Following immunisation of mice and splenic fusions by standard procedures, the supernatant of 16 hybridomas were initially assessed for PDGF-CC binding specificity by ELISA and Western analysis. A sensitive ELISA assay was employed to explore this using commercially available PDGF-AA, PDGF-BB, PDGF-DD and recombinant PDGF-CC. Specifically, antigen immobilization of purified recombinant human PDGF ligands, PDGF-AA, BB, CC and DD diluted in 100 mM NaHCO₃ at the concentration of 1μg/ml, was performed overnight at +4° C. Thereafter, all incubations were done at room temperature 1.5-2 hours and washes carried out with PBS. In triplicate, hybridoma supernatants were applied at a dilution of 1:2 in PBS/1% bovine serum albumin (BSA), or purified monoclonal antibody (mAbs) was added (1.5μg/ml in 3% BSA). A rabbit polyclonal IgG—purified antibody was used as positive control (4 μg/ml). Binding was detected with an anti—mouse (or anti—rabbit in control) alkaline phosphatase—conjugated secondary antibody and visualized by incubation with alkaline phosphatase yellow (pNPP) liquid substrate system for ELISA (Sigma—Aldrich). Absorbance was read at 405 nm.

[3] = target: T7, recombinant human PDGF-DD (human, UniProt Q9GZP0 250-370, limits assumed); experiment: as above
T7 construct: The construct is not described; also called PDGF-D polypeptide; PDGF-DD (R&D)
Method: as §1

[4] = target: T8, recombinant human PDGF-AA (human, UniProt P04085 87-211); experiment: as above
T8 construct: Bought; The construct is not described
Method: as §1

[5] = target: T6, recombinant human PDGF-BB; experiment: ELISA on coated PDGF-AA, -BB, -CC, -DD and BSA
[6] = target: T7, recombinant human PDGF-DD; experiment: ELISA on coated PDGF-AA, -BB, -CC, -DD and BSA
[7] = target: T5, recombinant human PDGF-CC active core …; experiment: ELISA on coated PDGF-AA, -BB, -CC, -DD and BSA
[8] = target: T8, recombinant human PDGF-AA; experiment: ELISA on coated PDGF-AA, -BB, -CC, -DD and BSA
[9] = target: B1; experiment: SPR, 6B3 (20.8 nM-667 nM) over thiol-immobilised peptide 3
Method: Peptide 3 was immobilized on channel 4 of the carboxymethyldextran-coated sensor chip using thiol chemistry. Briefly, the chip was activated on channel 4 using standard amine coupling chemistry (0.05M NHS/0.2M EDC) followed by 80 mM (2-(2-pyridinyldithio)ethane amine (PDEA) in 1M borate PH 8.2. Peptide 3 (100 nM in 10 mM sodium acetate pH 4.5) was conjugated via its C-terminal cysteine to PDEA. The chip was then blocked using 40 mM L-cysteine in 10 mM sodium acetate pH 4.0 and 1 M ethanolamine pH 8.2. A blank derivatised channel was used as the control channel.
Samples of antibody 6B3 (20.8 nM-667 nM) were injected (30 μL at 10 μL/min) in HBS buffer over immobilized peptide 3. Specific binding was observed as compared to the blank channel and then investigated further with smaller overlapping peptide sequences (data not shown).

[10] = target: T1, overlapping PDGF-C peptide EELKRTDTIFC; experiment: Biacore, 6B3 at 20.8 nM-667 nM over thiol-immobilised peptide
[11] = target: T2, PDGF-C peptide epitope SVSIREELKC; experiment: as above
RTDTIFWPGC = target: T3, RTDTIFWPGC; experiment: as above
[12] = target: T9, mouse PDGF-C core protein (mouse, UniProt Q8CI19 231-345, limits assumed); experiment: immunoblot of COS-1 supernatant with mouse PDGF-C core, probed with purified antibody
T9 construct: also called COSmPCcoremedia
Method: To produce the mouse PDGF-CC protein, COS-1 cells were transfected with mouse PDGF-C core plasmid constructed in expression vector pCDNA3.1 (Invitrogen). Transfection using lipofectamine plus reagent (Invitrogen) was performed according to the manufacturer's instructions. Transfected cells were cultured in serum free media. At 24 hours post-transfection, culture supernatant (COSmPCcoremedia) was collected and 30 μl sample was loaded on SDS-PAGE together with human PDGF-C core protein (0.1 μg RhPcc) and proteins separated by SDS-PAGE. Protein was then isolated using standard means.

[13] = target: T4, corresponding PDGF-D peptide SVNIREELKC; experiment: Biacore, 6B3 over thiol-immobilised peptide
Method: Samples of 6B3 antibody (1.334 μM) was injected (30 μL at 10 μL/min) in HBS buffer over the immobilized peptides.

[14] = target: T7, recombinant human PDGF-DD; experiment: immunoblot of recombinant PDGF-D after SDS-PAGE, probed with hybridoma supernatant, exposure 10 seconds

T7 sequence (Q9GZP0 250-370 limits assumed): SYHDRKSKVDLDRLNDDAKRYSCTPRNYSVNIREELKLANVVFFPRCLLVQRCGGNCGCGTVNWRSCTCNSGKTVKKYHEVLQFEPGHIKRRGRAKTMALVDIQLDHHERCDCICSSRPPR
T5 sequence (Q9NRA1 231-345 limits assumed): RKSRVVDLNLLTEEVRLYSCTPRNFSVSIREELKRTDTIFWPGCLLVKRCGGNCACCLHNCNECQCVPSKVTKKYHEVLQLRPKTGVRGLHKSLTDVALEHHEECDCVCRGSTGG
T6 sequence (P01127 82-190): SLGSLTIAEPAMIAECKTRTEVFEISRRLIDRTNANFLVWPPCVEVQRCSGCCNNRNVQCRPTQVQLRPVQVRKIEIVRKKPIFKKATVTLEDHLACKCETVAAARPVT
T9 sequence (Q8CI19 231-345 limits assumed): as the sequence (Q9NRA1 231-345 limits assumed) above, with R1K, R4K, D7N, T12K, R16K, S69R, R88K, S112N, T113A counted along it

Binder | Kd [1] [pM] | koff [1] [s⁻¹] | kon [1] [M⁻¹ s⁻¹] | binding result [2] | binding result [3] | binding result [4] | other results
B1 |  |  |  |  |  |  | binding result (monoclonal antibody 6B3): binds
B2 | 2200 | 0.0002 | 90000 | no binding (tested: 1.5 µg/ml) | no binding (tested: 1.5 µg/ml) | no binding (tested: 1.5 µg/ml) | 
B3 |  |  |  |  |  |  | binding result [5]: no binding; binding result [6]: no binding; binding result [7]: binds; binding result [8]: no binding
B4 | 900 | 0.0015 | 1.8e+06 | no binding (tested: 1.5 µg/ml) | no binding (tested: 1.5 µg/ml) | no binding (tested: 1.5 µg/ml) | binding result [9]: binds; binding result [10]: no binding (tested: 667 nM); binding result [11]: binds; binding result (RTDTIFWPGC): binds; binding result [12]: no binding; binding result [13]: no binding (tested: 1.334 µM (legend; paragraph 184 says 667 nM))
B5 | 700 | 0.0016 | 2.2e+06 | no binding (tested: 1.5 µg/ml) | no binding (tested: 1.5 µg/ml) | no binding (tested: 1.5 µg/ml) | 
B6 | 1050 | 0.00058 | 640000 | no binding (tested: 1.5 µg/ml) |  | no binding (tested: 1.5 µg/ml) | binding result [14]: no binding
B7 | 700 | 0.00041 | 600000 |  |  |  | binding result [5]: no binding; binding result [6]: no binding; binding result [8]: no binding
